Data: paper PMC11904948, “Peptide‐Drug Conjugate for Therapeutic Reprogramming of Tumor‐Associated Macrophages in Breast Cancer” (Advanced Science, 2025)

Assays:
[1] = system: IL‐4‐stimulated primary human macrophages; assay: In vitro photodynamic therapy, MTT viability, IL-4-stimulated macrophages; assay type: cell-based; details: 30 µM 1 h 37 °C, washed
Excerpt: We next coupled MACTIDE to the photosensitizer Verteporfin, intending to deplete CD206^+ TAM using photodynamic therapy (PDT). To this end, carboxy‐Verteporfin was coupled to the N‐terminus of MACTIDE, a construct referred to as “MACTIDE‐V” (Figure 5A). We performed in vitro photodynamic therapy with MACTIDE‐V on primary human macrophages stimulated with IL‐4 or LPS + IFNγ.
Figure 5 In vitro and in vivo photodynamic therapy with MACTIDE‐V. A) Structure of MACTIDE‐V. B) MACTIDE‐V, CtrlPep‐V, and DOX were incubated with primary human macrophages (obtained from monocytes derived from human blood buffy coat) at 30 µM for 1 h at 37 °C, followed by 2 washes with media. Then, the groups shown in pink were irradiated with 10 J cm^−2 (irradiance: 170 mW cm^−2, spot diameter: 0.5 cm). […] Peptide‐V conjugates were administered i.p. at a dose of 30 nmol (1 mg Kg^−1 in Verteporfin). For the irradiated groups, 4 h after administration of conjugates or PBS, the mice were irradiated with 100 J cm^−2; shown is primary tumor volume progression during treatment. Gray arrows indicate injection days. D) Bodyweight during the treatment as % of the initial one. E) Representative mIHC images of PBS, CtrlPep‐V, and MACTIDE‐V‐treated tumors, 20X magnification, scale bar = 100 µm, white triangles point to Foxp3^+ cells. F) CD8^+ T cells, CD4^+ T cells, and Treg density, n = 6 mice/group, with every dot representing the mean cell density of each tumor obtained from 20 images. G) CD8^+ T cells density in CK8^+‐dense tumor regions. n = 5 mice/group, with every dot representing the mean cell density of each tumor obtained from 20 images. Median ± interquartile range. One‐way ANOVA with multiple comparisons, ^* p ≤ 0.05, ^** p ≤ 0.01.
Human peripheral mononuclear cells (PBMCs) were purified from human blood buffy coats following the protocol described previously.^[ [24] ^] […] Crystal formation was monitored every 20–30 min to not oversaturate the absorbance values.

[2] = system: primary human macrophages; assay: Cytokine secretion by primary human macrophages (bead-based multiplex panel); assay type: cell-based; details: 10 µM 4 h, washed, 48 h, supernatant, n = 3
Method: To investigate potential off‐target risk in vivo caused by MACTIDE‐V we analyzed the serum levels of the hepatic enzyme alanine aminotransferase (ALAT) following a 3 mg Kg^−1 dose of MACTIDE‐V in healthy mice. If MACTIDE‐V causes off‐target inflammation, it would likely occur in the liver (the organ that expresses the MACTIDE receptor) and would reflect on ALAT levels (liver inflammation produces a > 2‐fold increase in ALAT^[ [35] ^]).
Figure S9. Quantification of cytokines from the supernatant of primary human macrophages treated with MACTIDE-V. Primary human macrophages (obtained from monocytes derived from human blood buffy coat) were incubated with 10µM MACTIDE-V for 4 h, followed by 2 washes with media, the cells were then placed in new media and cultured for an additional 48 h. Then, the supernatant was collected and analyzed for cytokine expression using a bead-based multiplexed cytokine panel assay (Biolegend, cat# 740502) following the manufacturer’s instructions. Anova Fisher LSD (n=3).

Substance	toxicity with and without irradiation ([1]; with or without 10 J cm^−2, 48 h)	macrophages depleted, irradiated ([1]; irradiated 10 J cm^−2 (689 nm), 48 h, n = 6) [%]	toxicity, non‐irradiated ([1]; no irradiation, 48 h, n = 6)	secretion of IFN‐γ [2]	secretion of IL‐1RA [2]	secretion of IL‐12 [2]	secretion of IL‐23 [2]	secretion of TNF‐α [2]
Vert‐Ahx‐AKPCGS‐OH [CtrlPep‐V, reference compound]	no toxicity							
Vert‐Ahx‐G(CTKSIPPIC)SPGAK‐OH (disulfide) [MACTIDE‐V]		80	no toxicity	did not significantly increase	significantly decreased	significantly increased	significantly increased	did not significantly increase
